# Laboratory results taken from paper PMC10200994, “A family-wide assessment of latent STAT transcription factor interactions reveals divergent dimer repertoires” (The Journal of Biological Chemistry, 2023).
# B1: STAT5A (unphosphorylated, wild-type), fluorophore fusion (natural protein, UniProt P42229 1-794, looked up)
# chain: MAGWIQAQQLQGDALRQMQVLYGQHFPIEVRHYLAQWIESQPWDAIDLDNPQDRAQATQLLEGLVQELQKKAEHQVGEDGFLLKIKLGHYATQLQKTYDRCPLELVRCIRHILYNEQRLVREANNCSSPAGILVDAMSQKHLQINQTFEELRLVTQDTENELKKLQQTQEYFIIQYQESLRIQAQFAQLAQLSPQERLSRETALQQKQVSLEAWLQREAQTLQQYRVELAEKHQKTLQLLRKQQTIILDDELIQWKRRQQLAGNGGPPEGSLDVLQSWCEKLAEIIWQNRQQIRRAEHLCQQLPIPGPVEEMLAEVNATITDIISALVTSTFIIEKQPPQVLKTQTKFAATVRLLVGGKLNVHMNPPQVKATIISEQQAKSLLKNENTRNECSGEILNNCCVMEYHQATGTLSAHFRNMSLKRIKRADRRGAESVTEEKFTVLFESQFSVGSNELVFQVKTLSLPVVVIVHGSQDHNATATVLWDNAFAEPGRVPFAVPDKVLWPQLCEALNMKFKAEVQSNRGLTKENLVFLAQKLFNNSSSHLEDYSGLSVSWSQFNRENLPGWNYTFWQWFDGVMEVLKKHHKPHWNDGAILGFVNKQQAHDLLINKPDGTFLLRFSDSEIGGITIAWKFDSPERNLWNLKPFTTRDFSIRSLADRLGDLSYLIYVFPDRPKDEVFSKYYTPVLAKAVDGYVKPQIKQVVPEFVNASADAGGSSATYMDQAPSPAVCPQAPYNMYPQNPDHVLDQDGEFDLDETMDVARHVEELLRRPMDSLDSRLSPPAGLFTSARGSLS
# notes: STAT5A, full-length wild type; One molecule for bait and test copies; also called U-STAT5A; STAT5A-NES; source: HeLa, transiently transfected, in cells; not shown: mCherry (test copy) or mEGFP (bait copy), C-terminal, kept
# B2: STAT5B (unphosphorylated, wild-type), fluorophore fusion (natural protein, UniProt P51692 1-787, looked up)
# chain: MAVWIQAQQLQGEALHQMQALYGQHFPIEVRHYLSQWIESQAWDSVDLDNPQENIKATQLLEGLVQELQKKAEHQVGEDGFLLKIKLGHYATQLQNTYDRCPMELVRCIRHILYNEQRLVREANNGSSPAGSLADAMSQKHLQINQTFEELRLVTQDTENELKKLQQTQEYFIIQYQESLRIQAQFGPLAQLSPQERLSRETALQQKQVSLEAWLQREAQTLQQYRVELAEKHQKTLQLLRKQQTIILDDELIQWKRRQQLAGNGGPPEGSLDVLQSWCEKLAEIIWQNRQQIRRAEHLCQQLPIPGPVEEMLAEVNATITDIISALVTSTFIIEKQPPQVLKTQTKFAATVRLLVGGKLNVHMNPPQVKATIISEQQAKSLLKNENTRNDYSGEILNNCCVMEYHQATGTLSAHFRNMSLKRIKRSDRRGAESVTEEKFTILFESQFSVGGNELVFQVKTLSLPVVVIVHGSQDNNATATVLWDNAFAEPGRVPFAVPDKVLWPQLCEALNMKFKAEVQSNRGLTKENLVFLAQKLFNNSSSHLEDYSGLSVSWSQFNRENLPGRNYTFWQWFDGVMEVLKKHLKPHWNDGAILGFVNKQQAHDLLINKPDGTFLLRFSDSEIGGITIAWKFDSQERMFWNLMPFTTRDFSIRSLADRLGDLNYLIYVFPDRPKDEVYSKYYTPVPCESATAKAVDGYVKPQIKQVVPEFVNASADAGGGSATYMDQAPSPAVCPQAHYNMYPQNPDSVLDTDGDFDLEDTMDVARRVEELLGRPMDSQWIPHAQS
# notes: STAT5B, full-length wild type; One molecule for bait and test copies; also called U-STAT5B; STAT5B-NES; source: HeLa, transiently transfected, in cells; not shown: mCherry (test copy) or mEGFP (bait copy), C-terminal, kept
# B3: STAT1 (unphosphorylated, wild-type), fluorophore fusion (natural protein, UniProt P42224 1-750, looked up)
# chain: MSQWYELQQLDSKFLEQVHQLYDDSFPMEIRQYLAQWLEKQDWEHAANDVSFATIRFHDLLSQLDDQYSRFSLENNFLLQHNIRKSKRNLQDNFQEDPIQMSMIIYSCLKEERKILENAQRFNQAQSGNIQSTVMLDKQKELDSKVRNVKDKVMCIEHEIKSLEDLQDEYDFKCKTLQNREHETNGVAKSDQKQEQLLLKKMYLMLDNKRKEVVHKIIELLNVTELTQNALINDELVEWKRRQQSACIGGPPNACLDQLQNWFTIVAESLQQVRQQLKKLEELEQKYTYEHDPITKNKQVLWDRTFSLFQQLIQSSFVVERQPCMPTHPQRPLVLKTGVQFTVKLRLLVKLQELNYNLKVKVLFDKDVNERNTVKGFRKFNILGTHTKVMNMEESTNGSLAAEFRHLQLKEQKNAGTRTNEGPLIVTEELHSLSFETQLCQPGLVIDLETTSLPVVVISNVSQLPSGWASILWYNMLVAEPRNLSFFLTPPCARWAQLSEVLSWQFSSVTKRGLNVDQLNMLGEKLLGPNASPDGLIPWTRFCKENINDKNFPFWLWIESILELIKKHLLPLWNDGCIMGFISKERERALLKDQQPGTFLLRFSESSREGAITFTWVERSQNGGEPDFHAVEPYTKKELSAVTFPDIIRNYKVMAAENIPENPLKYLYPNIDKDHAFGKYYSRPKEAPEPMELDGPKGTGYIKTELISVSEVHPSRLQTTDNLLPMSPEEFDEVSRIVGSVEFDSMMNTV
# notes: STAT1, full-length wild type; One molecule for bait and test copies; Three to five further heterologous residues flank the NES or NLS; cloning details only on request; also called U-STAT1; S1; source: HeLa, transiently transfected, in cells; not shown: mCherry (test copy) or mEGFP (bait copy), C-terminal, kept
# B4: STAT4 (unphosphorylated, wild-type), fluorophore fusion (natural protein, UniProt Q14765 1-748, looked up)
# chain: MSQWNQVQQLEIKFLEQVDQFYDDNFPMEIRHLLAQWIENQDWEAASNNETMATILLQNLLIQLDEQLGRVSKEKNLLLIHNLKRIRKVLQGKFHGNPMHVAVVISNCLREERRILAAANMPVQGPLEKSLQSSSVSERQRNVEHKVAAIKNSVQMTEQDTKYLEDLQDEFDYRYKTIQTMDQSDKNSAMVNQEVLTLQEMLNSLDFKRKEALSKMTQIIHETDLLMNTMLIEELQDWKRRQQIACIGGPLHNGLDQLQNCFTLLAESLFQLRRQLEKLEEQSTKMTYEGDPIPMQRTHMLERVTFLIYNLFKNSFVVERQPCMPTHPQRPLVLKTLIQFTVKLRLLIKLPELNYQVKVKASIDKNVSTLSNRRFVLCGTNVKAMSIEESSNGSLSVEFRHLQPKEMKSSAGGKGNEGCHMVTEELHSITFETQICLYGLTIDLETSSLPVVMISNVSQLPNAWASIIWYNVSTNDSQNLVFFNNPPPATLSQLLEVMSWQFSSYVGRGLNSDQLHMLAEKLTVQSSYSDGHLTWAKFCKEHLPGKSFTFWTWLEAILDLIKKHILPLWIDGYVMGFVSKEKERLLLKDKMPGTFLLRFSESHLGGITFTWVDHSESGEVRFHSVEPYNKGRLSALPFADILRDYKVIMAENIPENPLKYLYPDIPKDKAFGKHYSSQPCEVSRPTERGDKGYVPSVFIPISTIRSDSTEPHSPSDLLPMSPSVYAVLRENLSPTTIETAMKSPYSAE
# notes: STAT4, full-length wild type; One molecule for bait and test copies; also called U-STAT4; STAT4-NES; source: HeLa, transiently transfected, in cells; not shown: mCherry (test copy) or mEGFP (bait copy), C-terminal, kept
# How the values were obtained:
# Experiment in all cases: co-localization assay (relocalisation of a test protein by a compartment-targeted bait, fluorescence microscopy); HeLa cells co-expressing bait (STAT-NES or STAT-NLS, or wild-type STAT2 with its own export activity; green) and test protein without heterologous signal (red); no cytokine; fixed 20 h after transfection; Pearson correlation coefficient rP in cells with equimolar to 4-fold excess of bait
# [1] = biological target: the molecule itself
# [2] = biological target: B1; details: partners not purified
# [3] = biological target: T1, STAT2 (unphosphorylated, wild-type), fluorophore fusion (UniProt P52630 1-851); details: partners not purified
# T1 construct: STAT2, full-length wild type; used as bait through its own nuclear export activity; No heterologous NES or NLS on wild-type STAT2; also called U-STAT2; S2; source: HeLa, transiently transfected, in cells; not shown: mEGFP or mCherry, C-terminal, kept
# T1 sequence (P52630 whole entry, the tested form may be a part): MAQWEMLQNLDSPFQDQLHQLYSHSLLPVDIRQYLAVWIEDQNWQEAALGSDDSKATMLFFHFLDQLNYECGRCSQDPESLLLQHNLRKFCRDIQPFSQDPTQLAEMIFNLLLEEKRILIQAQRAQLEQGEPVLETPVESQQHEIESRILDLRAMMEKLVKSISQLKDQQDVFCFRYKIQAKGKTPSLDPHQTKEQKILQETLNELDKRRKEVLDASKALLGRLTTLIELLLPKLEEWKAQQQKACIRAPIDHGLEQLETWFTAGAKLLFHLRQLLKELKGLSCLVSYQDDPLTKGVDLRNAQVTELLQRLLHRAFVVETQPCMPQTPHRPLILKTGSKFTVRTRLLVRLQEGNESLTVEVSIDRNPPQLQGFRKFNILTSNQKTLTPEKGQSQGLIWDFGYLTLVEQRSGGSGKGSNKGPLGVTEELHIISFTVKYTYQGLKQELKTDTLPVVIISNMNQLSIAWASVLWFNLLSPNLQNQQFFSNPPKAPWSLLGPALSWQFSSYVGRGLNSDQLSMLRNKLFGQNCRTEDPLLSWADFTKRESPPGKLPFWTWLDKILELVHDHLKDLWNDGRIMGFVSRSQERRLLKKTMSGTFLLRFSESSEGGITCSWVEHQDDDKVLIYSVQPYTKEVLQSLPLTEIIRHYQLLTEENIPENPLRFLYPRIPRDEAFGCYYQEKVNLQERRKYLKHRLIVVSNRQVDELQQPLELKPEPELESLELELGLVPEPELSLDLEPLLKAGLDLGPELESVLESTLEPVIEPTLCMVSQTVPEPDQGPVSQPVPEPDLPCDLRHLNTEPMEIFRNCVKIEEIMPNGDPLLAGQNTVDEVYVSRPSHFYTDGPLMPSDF
Pearson correlation coefficient rP (co-localization) [2],Pearson correlation coefficient rP (co-localization) [3],Binder,Pearson correlation coefficient rP (co-localization) [1]
,,B1,≥ 0.94
0.97,,B2,≥ 0.94
,0.97,B3,
,,B4,≥ 0.94
